Where no end group is shown, it is not given here. [ ]: non-standard residue; d: D form. pS = N[C@@H](COP(=O)(O)O)C(=O)O
Columns and labels:
G11 = assay: ITC
A3 = assay: ITC

B1: phosphorylated Akt peptide (peptide)
peptide: RPHFPQF[pS]YSAS
- Kd (G11): 18.1 nM
- Kd (A3): 31.8 nM

Source: publication PMC11681868 (2024)
